Results: CN117715654A (OXFORD BIOTHERAPEUTICS LTD, dated 2024)

Target: human CD205 (human)
Assay: cell-based or functional assay

B1: 16A5(CD205_A1), DM4-conjugated anti-CD205 (anti-LY75) monoclonal antibody (antibody, V domains shown)
VH: EVQLVESGGGLVKPGGSLRLSCAASGFTYSNAWMSWVRQAPGKGLEWVGRIKSKTDGGTTDYAAPVQGRFTISRDDSKNTLYLQMNSLKTEDTAVYYCTIFGVVSFDYWGQGTLVTVSS
VL: DVQMTQSPSSLSASVGDRVTITCRASQSISDYLSWYQQRPGKAPNLLIYAASNLKTGVPSRFSGSGSGTDFTLTISTLQPEDFATYYCQQSYRSPWTFGQGTKVEIKR
modifications: conjugated to maytansinoid DM4; attachment residues not stated
- EC50 of cytotoxicity on Raji cells (Cell-Titer Glo, 96 h): 0.728 nM
- EC50 of cytotoxicity on THP1 cells (Cell-Titer Glo, 96 h): 0.0375 nM
